From article PMC7901972

Biological target: thrombin

**Q.** How did the inhibition of the enzymatic activity of thrombin on a chromogenic substrate (Vmax against the reaction without inhibitor), IC50 turn out when recombinant AsKunitz (natural protein) was run?
**A.** The inhibition of the enzymatic activity of thrombin on a chromogenic substrate (Vmax against the reaction without inhibitor), IC50 was 650 nM.
